Experiment [1] addresses T1, rHuman P-Cadherin/Fc Chimera, CF (R&D Systems Cat#861-PC) (human, UniProt P22223 108-654).
T1 construct: Bought protein; also called CDH3; Fc part of the bought chimera not given
The experiment can be described thus: ECL (MSD multi-spot), antigen spotted on plate; Fab 10 nM; blank 550.

Experiment [2] deals with T2, rHuman Notch-1/Fc Chimera, CF (R&D Systems Cat#3647-TK) (human, UniProt P46531 19-526).
T2 construct: Bought protein; Fc part of the bought chimera not given
The experiment is described as above.

Experiment [3] concerns the target T3, rHuman HGF R/c-MET/Fc Chimera, CF (R&D Systems Cat#358-MT/CF) (human, UniProt P08581 25-932).
T3 construct: Bought protein; also called HGF R/Fc; hepatocyte growth factor receptor; Fc part of the bought chimera not given
The experiment is described as above.

Experiment [4] addresses T4, rHuman CD44/Fc Chimera, CF (R&D Systems Cat#3660-CD) (human, UniProt P16070 21-220).
T4 construct: Bought protein; Fc part of the bought chimera not given
Described as above.

The target of experiment [5] is T5, rHuman EGF R/Fc Chimera, CF (R&D Systems Cat#344-ER) (human, UniProt P00533 25-645).
T5 construct: Bought protein; also called epidermal growth factor receptor; Fc part of the bought chimera not given
The description is as above.

The target in experiment [6] is T6, Recombinant Human DLL4 (R&D Systems Cat#1506-D4/CF) (human, UniProt Q9NR61 27-524).
T6 construct: Bought protein; also called rHuman DLL4; delta-like protein 4
The experiment is described as above.

Experiment [7] deals with T7, rHuman ErbB2/Fc Chimera, CF (R&D Systems Cat#1129-ER) (human, UniProt P04626 23-652).
T7 construct: Bought protein; also called HER2/neu; human epidermal growth factor 2 receptor; Fc part of the bought chimera not given
The experiment is described as above.

The target in experiment [8] is T8, rHuman Erythropoietin R/Fc Chimera, CF (R&D Systems Cat#963-ER) (human, UniProt P19235 25-250).
T8 construct: Bought protein; also called EPO R/Fc; Epo R; Fc part of the bought chimera not given
T8 sequence: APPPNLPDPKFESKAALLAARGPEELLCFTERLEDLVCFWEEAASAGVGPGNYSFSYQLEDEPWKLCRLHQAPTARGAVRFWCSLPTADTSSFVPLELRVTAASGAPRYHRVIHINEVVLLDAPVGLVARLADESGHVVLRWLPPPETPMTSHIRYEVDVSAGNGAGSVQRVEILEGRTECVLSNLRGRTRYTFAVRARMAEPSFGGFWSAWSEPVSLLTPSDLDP
The description is as above.

The target of experiment [9] is T9, rHuman IGF-1 sR (IGF-1 sR), CF (R&D Systems Cat#391-GR) (human, UniProt P08069 31-932).
T9 construct: Bought soluble receptor; also called insulin-like growth factor-1 soluble receptor; IGF-R1
Described as above.

Experiment [10] concerns the target T1, rHuman P-Cadherin/Fc Chimera, CF (R&D …). As to the kind of experiment: ECL (MSD multi-spot), antigen spotted on plate; Fab 1000 nM; blank 760.
The target of experiment [11] is T2, rHuman Notch-1/Fc Chimera, CF (R&D …). Described as above.
In experiment [12] the target is T3, rHuman HGF R/c-MET/Fc Chimera, CF (R&D …). Described as above.
The target in experiment [13] is T4, rHuman CD44/Fc Chimera, CF (R&D Systems …). Described as above.
The target in experiment [14] is T5, rHuman EGF R/Fc Chimera, CF (R&D …). Described as above.
The target of experiment [15] is T6, Recombinant Human DLL4 (R&D Systems …). Described as above.
In experiment [16] the target is T7, rHuman ErbB2/Fc Chimera, CF (R&D …). The description is as above.
The target of experiment [17] is T8, rHuman Erythropoietin R/Fc Chimera, CF …. Described as above.
For experiment [18], the target named is T9, rHuman IGF-1 sR (IGF-1 sR), CF (R&D …). The description is as above.
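Note: blank spot per well as comparator with Hit at signal to blank ratio of 4 or more.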

B1: Fab VH1-46_IGHD6-6*01_IGHJ1*01_S103P & L6_IGKJ1*01 (Fab, V domains shown)
VH: QVQLVQSGAEVKKPGASVKVSCKASGYTFTSYYMHWVRQAPGQGLEWMGIINPSGGSTSYAQKFQGRVTMTRDTSTSTVYMELSSLRSEDTAVYYCAREEYSPSSAEYFQHWGQGTLVTVSS
VL: not shown
notes: Expressed in E. coli as a Fab; CH1 with Flag and His tags comes from Plasmid A and the kappa CL from Plasmid C; also called IGHV1-46*01; IGHJ1*01 S103P with IGKV3-11*01
B1: the ECL signal in experiment [1] was determined as 846; in experiment [2], 792; in experiment [3] it was 859; in experiment [4], 746; in experiment [5] it was 773; in experiment [6], 55100. Also, the ECL signal in [7] came to 847; in [8], 802; in experiment [9], 814; in [10], 1380; in [11] it was 1210; in experiment [12], 1360. Further, the ECL signal in experiment [13] came out at 1220; in [14], 1910; in experiment [15], 29800; in experiment [16], 1280; in experiment [17], 1510; in [18], 1340.

Source of the values: patent publication US20120058906A1 (published 2012).
